In patent publication US20180334496A1 (KODIAK SCIENCES, published 2018):
Values joined by “and” are separate entries in the source; they are usually repeats but may differ in a detail not shown here. Identical values can stand only once.

Tests used:
[1] = target: T1, serum purified human Complement Factor D (human, UniProt P00746 26-253); assay: SPR Biacore, antibody on protein A chip, single cycle kinetics, 25 C;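 also: antibodies captured to roughly 70 RU on the protein A surface in HBS-EP+ running buffer, with kinetic constants derived by BIAevaluation fitting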
T1 construct: Serum purified protein flowed over the captured antibodies; also called CFD; human CFD
Method: (§1) Antibodies were diluted to 0.5 ug/ml in HBS-EP+ buffer and captured on a protein A chip for 25 seconds to reach approximately 70 resonance units. […] Binding kinetic information was obtained by the BIAevaluation software (GE).

[2] = target: T1, serum purified human Complement Factor D; assay: SPR Biacore, antibody on protein A chip, single cycle kinetics, 37 C;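 also: antibodies captured on the protein A surface to roughly 70 RU in HBS-EP+ buffer, with rate and affinity constants fitted using BIAevaluation software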
Method: as §1

T1 sequence (P00746 26-253): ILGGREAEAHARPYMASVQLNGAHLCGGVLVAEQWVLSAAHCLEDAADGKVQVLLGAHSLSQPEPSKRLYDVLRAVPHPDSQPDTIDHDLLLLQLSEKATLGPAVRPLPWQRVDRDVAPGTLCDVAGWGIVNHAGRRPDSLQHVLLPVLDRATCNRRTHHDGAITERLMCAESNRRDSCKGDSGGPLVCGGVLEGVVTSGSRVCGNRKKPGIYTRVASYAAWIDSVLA

Binder	Kd [1]	koff [1]	kon [1]	Kd [2]	koff [2]	kon [2]
28H31S54V59D / 101V (antibody, V domains shown, KCD119 TAF variant; full antibody captured on protein A) VH: EVQLVESGGGLVQPGGSLRLSCAASGYHFTSYYMNWVRQAPGKGLEWIGDINPVTGDTDYNADFKRRFTFSLDTSKSTAYLQMNSLRAEDTAVYYCTREGPSFAYWGQGTLVTVSS VL: DIQLTQSPSSLSASVGDRVTITCRSSQTIVHSNGDTYLEWYQQKPGKAPNLLIYKVSNRFSGVPSRFSGSGSGTDFTLTISSLQPEDFATYYCFQGSHVPVTFGQGTKVEIK	0.0251 nM	0.000167 s⁻¹	6.65e+06 M⁻¹ s⁻¹	0.0257 nM	0.000443 s⁻¹	1.72e+07 M⁻¹ s⁻¹
28I31S54V59D / 101V (antibody, V domains shown, KCD119 TAF variant; full antibody captured on protein A) VH: EVQLVESGGGLVQPGGSLRLSCAASGYIFTSYYMNWVRQAPGKGLEWIGDINPVTGDTDYNADFKRRFTFSLDTSKSTAYLQMNSLRAEDTAVYYCTREGPSFAYWGQGTLVTVSS VL: DIQLTQSPSSLSASVGDRVTITCRSSQTIVHSNGDTYLEWYQQKPGKAPNLLIYKVSNRFSGVPSRFSGSGSGTDFTLTISSLQPEDFATYYCFQGSHVPVTFGQGTKVEIK	0.0177 nM	0.000134 s⁻¹	7.59e+06 M⁻¹ s⁻¹	0.0195 nM	0.00039 s⁻¹	2e+07 M⁻¹ s⁻¹
28K31S54V59D / 101V (antibody, V domains shown, KCD119 TAF variant; full antibody captured on protein A) VH: EVQLVESGGGLVQPGGSLRLSCAASGYKFTSYYMNWVRQAPGKGLEWIGDINPVTGDTDYNADFKRRFTFSLDTSKSTAYLQMNSLRAEDTAVYYCTREGPSFAYWGQGTLVTVSS VL: DIQLTQSPSSLSASVGDRVTITCRSSQTIVHSNGDTYLEWYQQKPGKAPNLLIYKVSNRFSGVPSRFSGSGSGTDFTLTISSLQPEDFATYYCFQGSHVPVTFGQGTKVEIK	0.0224 nM	0.000163 s⁻¹	7.3e+06 M⁻¹ s⁻¹			
28Q31S54V59D / 101V (antibody, V domains shown, KCD119 TAF variant; full antibody captured on protein A) VH: EVQLVESGGGLVQPGGSLRLSCAASGYQFTSYYMNWVRQAPGKGLEWIGDINPVTGDTDYNADFKRRFTFSLDTSKSTAYLQMNSLRAEDTAVYYCTREGPSFAYWGQGTLVTVSS VL: DIQLTQSPSSLSASVGDRVTITCRSSQTIVHSNGDTYLEWYQQKPGKAPNLLIYKVSNRFSGVPSRFSGSGSGTDFTLTISSLQPEDFATYYCFQGSHVPVTFGQGTKVEIK	0.023 nM	0.000164 s⁻¹	7.15e+06 M⁻¹ s⁻¹	0.0757 nM	0.00103 s⁻¹	1.35e+07 M⁻¹ s⁻¹
28S31S54V59D / 101V (antibody, V domains shown, KCD119 TAF variant; full antibody captured on protein A) VH: EVQLVESGGGLVQPGGSLRLSCAASGYSFTSYYMNWVRQAPGKGLEWIGDINPVTGDTDYNADFKRRFTFSLDTSKSTAYLQMNSLRAEDTAVYYCTREGPSFAYWGQGTLVTVSS VL: DIQLTQSPSSLSASVGDRVTITCRSSQTIVHSNGDTYLEWYQQKPGKAPNLLIYKVSNRFSGVPSRFSGSGSGTDFTLTISSLQPEDFATYYCFQGSHVPVTFGQGTKVEIK	0.0217 nM	0.000166 s⁻¹	7.64e+06 M⁻¹ s⁻¹	0.0727 nM	0.000918 s⁻¹	1.26e+07 M⁻¹ s⁻¹
28V31S54V59D / 101V (antibody, V domains shown, KCD119 TAF variant; full antibody captured on protein A) VH: EVQLVESGGGLVQPGGSLRLSCAASGYVFTSYYMNWVRQAPGKGLEWIGDINPVTGDTDYNADFKRRFTFSLDTSKSTAYLQMNSLRAEDTAVYYCTREGPSFAYWGQGTLVTVSS VL: DIQLTQSPSSLSASVGDRVTITCRSSQTIVHSNGDTYLEWYQQKPGKAPNLLIYKVSNRFSGVPSRFSGSGSGTDFTLTISSLQPEDFATYYCFQGSHVPVTFGQGTKVEIK	0.00601 nM	4.76e-05 s⁻¹	7.91e+06 M⁻¹ s⁻¹	0.051 nM	0.00085 s⁻¹	1.66e+07 M⁻¹ s⁻¹
31S34I54I59D / 32W60W101V (antibody, V domains shown, KCD119 TAF variant; full antibody captured on protein A) VH: EVQLVESGGGLVQPGGSLRLSCAASGYTFTSYYINWVRQAPGKGLEWIGDINPITGDTDYNADFKRRFTFSLDTSKSTAYLQMNSLRAEDTAVYYCTREGPSFAYWGQGTLVTVSS VL: DIQLTQSPSSLSASVGDRVTITCRSSQTIVHWNGDTYLEWYQQKPGKAPNLLIYKVSNRWSGVPSRFSGSGSGTDFTLTISSLQPEDFATYYCFQGSHVPVTFGQGTKVEIK	0.0172 nM	5.69e-05 s⁻¹	3.31e+06 M⁻¹ s⁻¹	0.0312 nM	0.000208 s⁻¹	6.67e+06 M⁻¹ s⁻¹
31S48V54V59D / 101V (antibody, V domains shown, KCD119 TAF variant; full antibody captured on protein A) VH: EVQLVESGGGLVQPGGSLRLSCAASGYTFTSYYMNWVRQAPGKGLEWVGDINPVTGDTDYNADFKRRFTFSLDTSKSTAYLQMNSLRAEDTAVYYCTREGPSFAYWGQGTLVTVSS VL: DIQLTQSPSSLSASVGDRVTITCRSSQTIVHSNGDTYLEWYQQKPGKAPNLLIYKVSNRFSGVPSRFSGSGSGTDFTLTISSLQPEDFATYYCFQGSHVPVTFGQGTKVEIK	0.0169 nM	0.000101 s⁻¹	5.98e+06 M⁻¹ s⁻¹			
31S54I59D84S / 32W60W101V (antibody, V domains shown, Label printed 31S54I59D845, read as 84S; full antibody captured on protein A; also called 31S54I59D845 / 32W60W101V) VH: EVQLVESGGGLVQPGGSLRLSCAASGYTFTSYYMNWVRQAPGKGLEWIGDINPITGDTDYNADFKRRFTFSLDTSKSTAYLQMSSLRAEDTAVYYCTREGPSFAYWGQGTLVTVSS VL: DIQLTQSPSSLSASVGDRVTITCRSSQTIVHWNGDTYLEWYQQKPGKAPNLLIYKVSNRWSGVPSRFSGSGSGTDFTLTISSLQPEDFATYYCFQGSHVPVTFGQGTKVEIK	0.0203 nM	7.76e-05 s⁻¹	3.83e+06 M⁻¹ s⁻¹	0.0235 nM	0.000209 s⁻¹	8.9e+06 M⁻¹ s⁻¹
31S54I59D84T / 32W60W101V (antibody, V domains shown, KCD119 TAF variant; full antibody captured on protein A) VH: EVQLVESGGGLVQPGGSLRLSCAASGYTFTSYYMNWVRQAPGKGLEWIGDINPITGDTDYNADFKRRFTFSLDTSKSTAYLQMTSLRAEDTAVYYCTREGPSFAYWGQGTLVTVSS VL: DIQLTQSPSSLSASVGDRVTITCRSSQTIVHWNGDTYLEWYQQKPGKAPNLLIYKVSNRWSGVPSRFSGSGSGTDFTLTISSLQPEDFATYYCFQGSHVPVTFGQGTKVEIK	0.0157 nM	6.01e-05 s⁻¹	3.83e+06 M⁻¹ s⁻¹	0.0288 nM	0.000224 s⁻¹	7.79e+06 M⁻¹ s⁻¹
31S54I59D / 32W60W101V (antibody, V domains shown, KCD119 TAF variant; full antibody captured on protein A) VH: EVQLVESGGGLVQPGGSLRLSCAASGYTFTSYYMNWVRQAPGKGLEWIGDINPITGDTDYNADFKRRFTFSLDTSKSTAYLQMNSLRAEDTAVYYCTREGPSFAYWGQGTLVTVSS VL: DIQLTQSPSSLSASVGDRVTITCRSSQTIVHWNGDTYLEWYQQKPGKAPNLLIYKVSNRWSGVPSRFSGSGSGTDFTLTISSLQPEDFATYYCFQGSHVPVTFGQGTKVEIK	0.0165 nM	6.3e-05 s⁻¹	3.83e+06 M⁻¹ s⁻¹	0.0343 nM	0.000225 s⁻¹	6.55e+06 M⁻¹ s⁻¹
31S54I59D / 50I60W101V (antibody, V domains shown, KCD119 TAF variant; full antibody captured on protein A) VH: EVQLVESGGGLVQPGGSLRLSCAASGYTFTSYYMNWVRQAPGKGLEWIGDINPITGDTDYNADFKRRFTFSLDTSKSTAYLQMNSLRAEDTAVYYCTREGPSFAYWGQGTLVTVSS VL: DIQLTQSPSSLSASVGDRVTITCRSSQTIVHSNGDTYLEWYQQKPGKAPILLIYKVSNRWSGVPSRFSGSGSGTDFTLTISSLQPEDFATYYCFQGSHVPVTFGQGTKVEIK	0.00774 nM	3.98e-05 s⁻¹	5.14e+06 M⁻¹ s⁻¹	0.0276 nM	0.000256 s⁻¹	9.26e+06 M⁻¹ s⁻¹
31S54I59D / 54G101V (antibody, V domains shown, KCD119 TAF variant; full antibody captured on protein A) VH: EVQLVESGGGLVQPGGSLRLSCAASGYTFTSYYMNWVRQAPGKGLEWIGDINPITGDTDYNADFKRRFTFSLDTSKSTAYLQMNSLRAEDTAVYYCTREGPSFAYWGQGTLVTVSS VL: DIQLTQSPSSLSASVGDRVTITCRSSQTIVHSNGDTYLEWYQQKPGKAPNLLIGKVSNRFSGVPSRFSGSGSGTDFTLTISSLQPEDFATYYCFQGSHVPVTFGQGTKVEIK	0.00689 nM	8.25e-05 s⁻¹	1.2e+07 M⁻¹ s⁻¹	0.00931 nM	0.000222 s⁻¹	2.38e+07 M⁻¹ s⁻¹
31S54V59D / 32W60W101V (antibody, V domains shown, KCD119 TAF variant; full antibody captured on protein A) VH: EVQLVESGGGLVQPGGSLRLSCAASGYTFTSYYMNWVRQAPGKGLEWIGDINPVTGDTDYNADFKRRFTFSLDTSKSTAYLQMNSLRAEDTAVYYCTREGPSFAYWGQGTLVTVSS VL: DIQLTQSPSSLSASVGDRVTITCRSSQTIVHWNGDTYLEWYQQKPGKAPNLLIYKVSNRWSGVPSRFSGSGSGTDFTLTISSLQPEDFATYYCFQGSHVPVTFGQGTKVEIK	0.0158 nM	8.84e-05 s⁻¹	5.58e+06 M⁻¹ s⁻¹	0.0227 nM	0.000293 s⁻¹	1.29e+07 M⁻¹ s⁻¹
31S54V59D / 101V (antibody, V domains shown, KCD119 TAF variant; full antibody captured on protein A) VH: EVQLVESGGGLVQPGGSLRLSCAASGYTFTSYYMNWVRQAPGKGLEWIGDINPVTGDTDYNADFKRRFTFSLDTSKSTAYLQMNSLRAEDTAVYYCTREGPSFAYWGQGTLVTVSS VL: DIQLTQSPSSLSASVGDRVTITCRSSQTIVHSNGDTYLEWYQQKPGKAPNLLIYKVSNRFSGVPSRFSGSGSGTDFTLTISSLQPEDFATYYCFQGSHVPVTFGQGTKVEIK	0.0188 nM and 0.0176 nM	0.000131 s⁻¹ and 0.000101 s⁻¹	6.95e+06 M⁻¹ s⁻¹ and 5.71e+06 M⁻¹ s⁻¹	0.0411 nM	0.000373 s⁻¹	9.08e+06 M⁻¹ s⁻¹
54V59D / 32W60W101V (antibody, V domains shown, KCD119 TAF variant; full antibody captured on protein A) VH: EVQLVESGGGLVQPGGSLRLSCAASGYTFTDYYMNWVRQAPGKGLEWIGDINPVTGDTDYNADFKRRFTFSLDTSKSTAYLQMNSLRAEDTAVYYCTREGPSFAYWGQGTLVTVSS VL: DIQLTQSPSSLSASVGDRVTITCRSSQTIVHWNGDTYLEWYQQKPGKAPNLLIYKVSNRWSGVPSRFSGSGSGTDFTLTISSLQPEDFATYYCFQGSHVPVTFGQGTKVEIK	0.00607 nM	4.79e-05 s⁻¹	7.88e+06 M⁻¹ s⁻¹			
54V59D / 101V (antibody, V domains shown, KCD119 TAF variant; full antibody captured on protein A) VH: EVQLVESGGGLVQPGGSLRLSCAASGYTFTDYYMNWVRQAPGKGLEWIGDINPVTGDTDYNADFKRRFTFSLDTSKSTAYLQMNSLRAEDTAVYYCTREGPSFAYWGQGTLVTVSS VL: DIQLTQSPSSLSASVGDRVTITCRSSQTIVHSNGDTYLEWYQQKPGKAPNLLIYKVSNRFSGVPSRFSGSGSGTDFTLTISSLQPEDFATYYCFQGSHVPVTFGQGTKVEIK	0.0371 nM	0.000258 s⁻¹	6.94e+06 M⁻¹ s⁻¹			
